# Laboratory results: the supplement of paper PMC6757056
# ± gives the standard deviation of the averaged measurements.
# B1: library; a variant is named by its letters at N, in order (parent)
# chain: GCUGUCACCGGUGUAUUACCCUAGUGGUCGACCGGUCUGAUGAGUCUNNNNNNAGACGAAACAGC
# Columns and labels:
# hypoxanthine [1] = variants of: B1; experiment: normalized RNA/DNA level with ligand (relative to sTRSVctl = 100) (log10 (% of sTRSVctl)); ligand: hypoxanthine (xanthine aptamer); higher = less ribozyme self-cleavage, higher mRNA level; details: ligand concentration (+) RNA-Seq: 5 mM, HEK293T, reporter: mCherry (pCS4076), ligand present: yes
# Outline: (§1)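 HEK293T cells received ligand, where used, 1 h before being transfected with 4 µg per 6-well well of library plasmids encoding reporter-linked ribozyme switches. After 72 h, RNA was extracted with EDTA and sequenced. RNA level was derived from RNA reads per DNA read, normalized to a spiked-in non-cleaving sequence or the top sequences, then scaled and log-transformed. Values were ×100 then log10, the top set was 25 sequences, and the minimum was 100 DNA reads.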
# hypoxanthine [2] = variants of: B1; experiment: normalized RNA/DNA level without ligand (relative to sTRSVctl = 100) (log10 (% of sTRSVctl)); ligand: hypoxanthine (xanthine aptamer); higher = less ribozyme self-cleavage, higher mRNA level; details: HEK293T, reporter: mCherry (pCS4076), ligand present: no
# Outline: as §1
Variant,normalized RNA/DNA level with ligand (log10) (hypoxanthine [1]),normalized RNA/DNA level without ligand (log10) (hypoxanthine [2])
AUCGCU,1.91 ± 0.024,1.84 ± 0.028
GUCCCU,1.934 ± 0.016,1.92 ± 0.05
GUCCCA,1.94 ± 0.02,1.9 ± 0.041
GUCCCC,1.907 ± 0.017,1.825 ± 0.01
UUCCCU,2 ± 0.052,1.935 ± 0.0058
UUCCCC,1.93 ± 0.043,1.8846 ± 0.0013
UUCCCA,1.92 ± 0.032,1.91 ± 0.037
AUCUUU,1.99 ± 0.024,1.91 ± 0.046
AUCUUC,2.02 ± 0.031,2.006 ± 0.0047
AUCUUA,1.916 ± 0.012,1.827 ± 0.011
UUAUCG,1.905 ± 0.01,1.78 ± 0.084
UUAUCU,1.977 ± 0.014,1.86 ± 0.026
UUCACU,1.956 ± 0.0023,1.76 ± 0.039
UUCACG,1.93 ± 0.036,1.8 ± 0.031
UUCACC,1.984 ± 0.015,2 ± 0.05
AUCAAA,1.921 ± 0.011,1.79 ± 0.034
AUCAAC,1.99 ± 0.031,1.84 ± 0.028
AUCAAU,1.89 ± 0.038,1.78 ± 0.058
CUCCGG,1.93 ± 0.029,1.95 ± 0.065
CUCCGU,1.95 ± 0.051,1.88 ± 0.019
CUCCGC,1.967 ± 0.019,1.95 ± 0.026
CUCCGA,1.96 ± 0.13,1.884 ± 0.0062
AUGAGU,1.87 ± 0.026,1.44 ± 0.11
AUGAGC,1.8938 ± 0.00087,1.57 ± 0.055
GUCCUC,1.9 ± 0.016,1.93 ± 0.057
GUCCUG,1.88 ± 0.024,1.52 ± 0.022
GUCCUU,1.94 ± 0.11,1.95 ± 0.017
GUCCUA,1.95 ± 0.069,1.934 ± 0.015
UUAUGU,1.92 ± 0.021,1.794 ± 0.01
